Experimental data from patent US20030064496.

Target: GST-MKK4 fusion protein (Upstate Biotechnologies, Inc) [GST: P08515]

Protein | phosphorylation of GST-MKK4 in a kinase reaction with [gamma-32P]-ATP (SDS-PAGE, phosphorimager)
His-tagged hMEKK2 (polyhistidine-hMEKK2 fusion) (protein) HHHHHHMDDQQALNSIMQDLAVLHKASRPALSLQETRKAKSSSPKKQNDVRVKFEHRGEKRILQFPRPVKLEDLRSKAKIAFGQSMDLHYTNNELVIPLTTQDDLDKAVELLDRSIHMKSLKILLVINGSTQATNLEPLPSLEDLDNTVFGAERKKRLSIIGPTSRDRSSPPPGYIPDELHQVARNGSFTSINSEGEFIPESMDQMLDPLSLSSPENSGSGSCPSLDSPLDGESYPKSRMPRAQSYPDNHQEFSDYDNPIFEKFGKGGTYPRRYHVSYHHQEYNDGRKTFPRARRTQGTSLRSPVSFSPTDHSLSTSSGSSIFTPEYDDSRIRRRGSDIDNPTLTVMDISPPSRSPRAPTNWRLGKLLGQGAFGRVYLCYDVDTGRELAVKQVQFDPDSPETSKEVNALECEIQLLKNLLHERIVQYYGCLRDPQEKTLSIFMEYMPGGSIKDQLKAYGALTENVTRKYTRQILEGVHYLHSNMIVHRDIKGANILRDSTGNVKLGDFGASKRLQTICLSGTGMKSVTGTPYWMSPEVISGEGYGRKADIWSVACTVVEMLTEKPPWAEFEAMAAIFKIATQPTNPKLPPHVSDYTRDFLKRIFVEAKLRPSADELLRHMFVHYH | comparable to the activity of purified mouse MEKK2, and significantly above the background levels seen with control extracts
purified mouse MEKK2 (protein) MDDQQALNSIMQDLAVLHKASRPALSLQETRKAKPSSPKKQNDVRVKFEHRGEKRILQVTRPVKLEDLRSKSKIAFGQSMDLHYTNNELVIPLTTQDDLDKAVELLDRSIHMKSLKILLVVNGSTQATNLEPSPSPEDLNNTPLGAERKKRLSVVGPPNRDRSSPPPGYIPDILHQIARNGSFTSINSEGEFIPESMDQMLDPLSLSSPENSGSGSCPSLDSPLDGESYPKSRMPRAQSYPDNHQEFTDYDNPIFEKFGKGGTYPRRYHVSYHHQEYNDGRKTFPRARRTQGTSFRSPVSFSPTDHSLSTSSGSSVFTPEYDDSRIRRRGSDIDNPTLTVTDISPPSRSPRAPTNWRLGKLLGQGAFGRVYLCYDVDTGRELAVKQVQFNPESPETSKEVNALECEIQLLKNLLHERIVQYYGCLRDPQEKTLSIFMELSPGGSIKDQLKAYGALTENVTRKYTRQILEGVHYLHSNMIVHRDIKGANILRDSTGNIKLGDFGASKRLQTICLSGTGMKSVTGTPYWMSPEVISGEGYGRKADIWSVACTVVEMLTEKPPWAEFEAMAAIFKIATQPTNPKLPPHVSDYTRDFLKRIFVEAKLRPSAEELLRHMFVHYH | The ability of extracts containing his-tagged hMEKK2 to phosphorylate GST-MKK4 was comparable to the activity of purified mouse MEKK2
